Reference: IntAct's records for PubMed 24034254

B1: Proto-oncogene tyrosine-protein kinase LCK (Mus musculus), P06240 (parent)
chain: MGCVCSSNPEDDWMENIDVCENCHYPIVPLDSKISLPIRNGSEVRDPLVTYEGSLPPASPLQDNLVIALHSYEPSHDGDLGFEKGEQLRILEQSGEWWKAQSLTTGQEGFIPFNFVAKANSLEPEPWFFKNLSRKDAERQLLAPGNTHGSFLIRESESTAGSFSLSVRDFDQNQGEVVKHYKIRNLDNGGFYISPRITFPGLHDLVRHYTNASDGLCTKLSRPCQTQKPQKPWWEDEWEVPRETLKLVERLGAGQFGEVWMGYYNGHTKVAVKSLKQGSMSPDAFLAEANLMKQLQHPRLVRLYAVVTQEPIYIITEYMENGSLVDFLKTPSGIKLNVNKLLDMAAQIAEGMAFIEEQNYIHRDLRAANILVSDTLSCKIADFGLARLIEDNEYTAREGAKFPIKWTAPEAINYGTFTIKSDVWSFGILLTEIVTHGRIPYPGMTNPEVIQNLERGYRMVRPDNCPEELYHLMMLCWKERPEDRPTFDYLRSVLDDFFTATEGQYQPQP

Variants of: B1
Details: with cd4_mouse Cd4, P06332
cd4_mouse Cd4, P06332, sequence (P06332 whole entry): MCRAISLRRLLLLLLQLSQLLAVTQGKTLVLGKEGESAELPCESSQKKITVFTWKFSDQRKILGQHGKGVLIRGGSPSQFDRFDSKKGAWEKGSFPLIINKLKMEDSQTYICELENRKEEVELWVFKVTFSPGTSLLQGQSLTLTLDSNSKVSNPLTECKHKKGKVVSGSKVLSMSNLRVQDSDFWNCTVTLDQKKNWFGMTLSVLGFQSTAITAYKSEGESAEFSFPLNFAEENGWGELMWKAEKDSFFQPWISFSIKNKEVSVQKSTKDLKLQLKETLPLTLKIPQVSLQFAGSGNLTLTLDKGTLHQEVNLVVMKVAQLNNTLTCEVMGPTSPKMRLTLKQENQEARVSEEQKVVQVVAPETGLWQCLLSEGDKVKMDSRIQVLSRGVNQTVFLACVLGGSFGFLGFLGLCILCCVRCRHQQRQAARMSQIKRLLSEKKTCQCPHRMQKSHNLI

effect of a mutation on the interaction	Variant
disrupting interaction strength	C20A;C23A

Variants of: B1
Details: with cd8a_mouse Cd8a

effect of a mutation on the interaction	Variant
disrupting interaction strength	C20A;C23A
